From patent US20050043236A1 (published 2005)
Read-outs that look alike come from different tables or passages of the source.

Columns and labels:
[1] = target: T1, human VEGF165 (human, UniProt P15692-4 27-191); assay: half-life of dissociation of the trap-hVEGF165 complex, as described in WO/0075319
T1 construct: also called hVEGF165

[2] = target: T1, human VEGF165; assay: kinetic dissociation from hVEGF165, as described in WO/0075319
[3] = target: T1, human VEGF165; assay: affinity determination for human VEGF-165 (method not named in Example 7); second row for SEQ ID NO: 26
[4] = target: T1, human VEGF165; assay: affinity determination for human VEGF-165 (method not named in Example 7)
[5] = target: T1, human VEGF165

T1 sequence (P15692 other isoform, or with tags, fused parts or gaps limits assumed): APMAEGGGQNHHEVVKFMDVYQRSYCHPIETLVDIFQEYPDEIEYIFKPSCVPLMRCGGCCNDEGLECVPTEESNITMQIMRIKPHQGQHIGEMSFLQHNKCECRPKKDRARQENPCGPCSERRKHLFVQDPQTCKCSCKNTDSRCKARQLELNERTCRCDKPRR

Row | Binder | T1/2 [1] [h] | koff [2] [s⁻¹] | Kd [3] [pM] | koff [3] [s⁻¹] | kon [3] [M⁻¹ s⁻¹] | Kd [4] [pM] | koff [4] [s⁻¹] | kon [4] [M⁻¹ s⁻¹] | Kd [5] [pM]
1 | VEGF mini-trap of SEQ ID NO:26 (receptor, Secreted from CHO K1 cells; Covalent dimer of about 64 kDa) SDTGRPFVEMYSEIPEIIHMTEGRELVIPCRVTSPNITVTLKKFPLDTLIPDGKRIIWDSRKGFIISNATYKEIGLLTCEATVNGHLYKTNYLTHRQTNTIIDVVLSPSHGIELSVGEKLVLNCTARTELNVGIDFNWEYPSSKHQHKKLVNRDLKTQSGSEMKKFLSTLTIDGVTRSDQGLYTCAASSGLMTKKNSTFVRVHEKDKTHTCPPC |  |  | 0.221 | 5.77e-06 | 2.61e+07 | 0.328 | 6.56e-06 | 2e+07 | 
2 | cleaved VEGF mini-trap (receptor, Product of thrombin digestion of the uncleaved VEGF trap; also called thrombin-cleaved dimeric VEGF mini-trap; truncated trap) SDTGRPFVEMYSEIPEIIHMTEGRELVIPCRVTSPNITVTLKKFPLDTLIPDGKRIIWDSRKGFIISNATYKEIGLLTCEATVNGHLYKTNYLTHRQTNTIIDVVLSPSHGIELSVGEKLVLNCTARTELNVGIDFNWEYPSSKHQHKKLVNRDLKTQSGSEMKKFLSTLTIDGVTRSDQGLYTCAASSGLMTKKNSTFVRVHEKDKTHTCPPCLVPRGS | 3.53 | 5.46e-05 |  |  |  |  |  |  | 

Second part, the binder after the results:

Row | T1/2 [1] [h] | koff [2] [s⁻¹] | Kd [3] [pM] | koff [3] [s⁻¹] | kon [3] [M⁻¹ s⁻¹] | Kd [4] [pM] | koff [4] [s⁻¹] | kon [4] [M⁻¹ s⁻¹] | Kd [5] [pM] | Binder
3 | 3.9 | 4.93e-05 |  |  |  |  |  |  |  | uncleaved VEGF trap containing a thrombin cleavage site (Fc fusion) SDTGRPFVEMYSEIPEIIHMTEGRELVIPCRVTSPNITVTLKKFPLDTLIPDGKRIIWDSRKGFIISNATYKEIGLLTCEATVNGHLYKTNYLTHRQTNTIIDVVLSPSHGIELSVGEKLVLNCTARTELNVGIDFNWEYPSSKHQHKKLVNRDLKTQSGSEMKKFLSTLTIDGVTRSDQGLYTCAASSGLMTKKNSTFVRVHEKDKTHTCPPCLVPRGSPAPELLGGPSVFLFPPKPKDTLMISRTPEVTCVVVDVSHEDPEVKFNWYVDGVEVHNAKTKPREEQYNSTYRVVSVLTVLHQDWLNGKEYKCKVSNKALPAPIEKTISKAKGQPREPQVYTLPPSRDELTKNQVSLTCLVKGFYPSDIAVEWESNGQPENNYKTTPPVLDSDGSFFLYSKLTVDKSRWQQGNVFSCSVMHEALHNHYTQKSLSLSPGK
4 | 0.028 | 0.00674 |  |  |  |  |  |  | ~1000 | recombinant monomeric R1R2-myc myc his (receptor, C-terminal myc-myc-his tag is not in the letters., Monomer; The construct is named only, not described; also called R1R2-myc myc his monomer; not shown: myc-myc-his tag and any linker to it) SDTGRPFVEMYSEIPEIIHMTEGRELVIPCRVTSPNITVTLKKFPLDTLIPDGKRIIWDSRKGFIISNATYKEIGLLTCEATVNGHLYKTNYLTHRQTNTIIDVVLSPSHGIELSVGEKLVLNCTARTELNVGIDFNWEYPSSKHQHKKLVNRDLKTQSGSEMKKFLSTLTIDGVTRSDQGLYTCAASSGLMTKKNSTFVRVHEK
